The assay concerns the target human paraoxonase (PON1A) (human) (UniProt P27169). The assay can be described thus: cell-based or functional assay.
UniProt P27169, sequence (P27169 2-355 limits assumed): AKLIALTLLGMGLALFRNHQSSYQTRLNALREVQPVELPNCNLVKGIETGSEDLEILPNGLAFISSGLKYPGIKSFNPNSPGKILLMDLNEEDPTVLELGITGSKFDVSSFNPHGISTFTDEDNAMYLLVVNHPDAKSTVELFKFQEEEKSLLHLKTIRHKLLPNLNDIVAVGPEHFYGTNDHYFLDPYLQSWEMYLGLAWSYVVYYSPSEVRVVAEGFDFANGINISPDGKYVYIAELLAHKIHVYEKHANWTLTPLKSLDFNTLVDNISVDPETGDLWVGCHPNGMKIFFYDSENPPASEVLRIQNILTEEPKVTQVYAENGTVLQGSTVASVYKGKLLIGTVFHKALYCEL

Take recombinant human ApoA-I K96C: the arylesterase activity, CHO-PON cells cultured 24 h with 10 µg/mL ApoA-I (U/mg cell protein) is 0.067 and the reduction in arylesterase activity compared to ApoA-IWT was 30%.
On to “recombinant human ApoA-I wild type (His-6 tagged)”, for which the ApoA-I concentration at which secreted PON activity is maximal (CHO-PON cell medium) worked out at 12 µg/mL; the PON activity of baseline conditioned medium incubated 3 h at 37° C. with 10 µg/mL lipid-free ApoA-I postculture (relative to baseline) is 94.4%; the PON activity of cells grown with 10 µg/mL ApoA-I over cells grown without ApoA-I was 203%; the arylesterase activity in medium at 24 h, CHO-PON cells in the presence of 10 µg/mL ApoA-I (unit/mg of cell protein) turned out to be 0.087. Also, the arylesterase activity, CHO-PON cells cultured 24 h with 10 µg/mL ApoA-I (U/mg cell protein) turned out to be 0.095 and the increase in arylesterase activity on culturing CHO-PON cells with ApoA-I turned out to be 2.1 fold.
Substance recombinant human ApoA-I R61C came in with an arylesterase activity, CHO-PON cells cultured 24 h with 10 µg/mL ApoA-I (U/mg cell protein) of 0.121 and an increase in arylesterase activity compared to ApoA-IWT of 30%.
“recombinant human ApoA-I R173C (ApoA-IMilano)” returned a secreted PON arylesterase activity, CHO-PON cells cultured 24 h with 10 µg/mL ApoA-I (U/mg cell protein) of 0.076.
For the substance recombinant human ApoA-I R10C, the arylesterase activity, CHO-PON cells cultured 24 h with 10 µg/mL ApoA-I (U/mg cell protein) was 0.126 and the increase in arylesterase activity compared to ApoA-IWT worked out at 30%.
“recombinant human ApoA-I R151C (ApoA-IParis)” came in with a secreted PON arylesterase activity, CHO-PON cells cultured 24 h with 10 µg/mL ApoA-I (U/mg cell protein) of 0.086.
Substance recombinant human ApoA-I R27C showed an arylesterase activity, CHO-PON cells cultured 24 h with 10 µg/mL ApoA-I (U/mg cell protein) of 0.125 and an increase in arylesterase activity compared to ApoA-IWT of 30%.

Source of the values: patent US20030181372A1.
